Measured values from article PMC5855320, “Activation of the Notch Signaling Pathway In Vivo Elicits Changes in CSL Nuclear Dynamics” (Developmental Cell, 2018).
Each block holds one molecule with its values, some of them ahead of it.

Columns and labels:
[1] = system: Su(H) WT (Drosophila melanogaster); experiment: ITC; conditions: ITC: 50 mM sodium phosphate pH 6.5, 150 mM NaCl, 10 C; 10 uM Su(H) in cell, 100 uM DNA in syringe; one-site model
[2] = biological target: T1, Recombinant Su(H) (98-523) (Drosophila melanogaster, UniProt P28159 98-523); experiment: ITC; MicroCal VP-ITC; typically 50 μM Su(H) in the syringe and 5 μM NICD in the cell; 25°C; 50 mM sodium phosphate pH 6.5, 150 mM NaCl; one-site binding model; conditions: both partners purified
T1 construct: Suppressor of Hairless (Su(H)), the Drosophila CSL, residues 98-523; Wild-type parent of the NBM mutant in the ITC experiment; also called Suppressor of Hairless; CSL; source: bacteria, purified (glutathione-Sepharose, cation exchange, size exclusion chromatography)
T1 sequence (P28159 98-523): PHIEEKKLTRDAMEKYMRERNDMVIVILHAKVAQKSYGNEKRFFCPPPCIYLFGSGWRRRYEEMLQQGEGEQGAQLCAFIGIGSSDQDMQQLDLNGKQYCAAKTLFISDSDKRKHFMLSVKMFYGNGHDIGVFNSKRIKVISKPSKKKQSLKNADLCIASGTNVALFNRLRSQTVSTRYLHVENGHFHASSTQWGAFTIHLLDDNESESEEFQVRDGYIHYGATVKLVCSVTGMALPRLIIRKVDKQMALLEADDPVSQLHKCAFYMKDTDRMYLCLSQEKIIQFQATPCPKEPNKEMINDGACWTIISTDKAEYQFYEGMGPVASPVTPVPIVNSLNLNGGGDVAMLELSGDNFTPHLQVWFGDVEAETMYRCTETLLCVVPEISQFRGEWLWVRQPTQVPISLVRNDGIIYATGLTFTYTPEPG

Molecule: ITC DNA (Su(H) binding DNA, sequence not given)
Kd [1]: 460 nM

binding result [2]: binds
B1: Recombinant NICD (1762-2142) (domain or fragment, Drosophila melanogaster, UniProt P07207 1762-2142, looked up)
chain: MVLSTQRKRAHGVTWFPEGFRAPAAVMSRRRRDPHGQEMRNLNKQVAMQSQGVGQPGAHWSDDESDMPLPKRQRSDPVSGVGLGNNGGYASDHTMVSEYEEADQRVWSQAHLDVVDVRAIMTPPAHQDGGKHDVDARGPCGLTPLMIAAVRGGGLDTGEDIENNEDSTAQVISDLLAQGAELNATMDKTGETSLHLAARFARADAAKRLLDAGADANCQDNTGRTPLHAAVAADAMGVFQILLRNRATNLNARMHDGTTPLILAARLAIEGMVEDLITADADINAADNSGKTALHWAAAVNNTEAVNILLMHHANRDAQDDKDETPLFLAAREGSYEACKALLDNFANREITDHMDRLPRDVASERLHHDIVRLLDEHVPR
notes: Notch intracellular domain (NICD), Drosophila Notch, residues 1762-2142; also called Notch intracellular domain; source: bacteria, purified (glutathione-Sepharose, cation exchange, size exclusion chromatography)
